US9518268B2, “Drought tolerant transgenic plants and method of making same” (PURDUE RESEARCH FOUNDATION, priority 2013, dated 2016)
“Also recorded” adds a separate entry of the source.

Legend:
[1] = test system: RD29B-LUC expression; assay: Reconstituted ABA signaling pathway, transient expression in wild-type (Col-0) protoplasts; assay type: cell-based, Arabidopsis; details: for ABA-dependent induction of RD29B-LUC expression: co-transfected with ABI1, SnRK2.6 and ABF2, without or with 5 μM ABA, 4.5 h; for RD29B-LUC expression: SnRK2.6 and ABF2; for level of inhibition by PYL13 of the other PYL's activity: 2×PYL13 plasmid, ABI1, SnRK2.6, ABF2 co-expressed
Description: To test whether PYL13 can act as an ABA receptor, the ABA signaling pathway in wild-type protoplasts was reconstituted. Turning now to FIG. 1, wild-type (Col-0) protoplasts were used in both panels A and B. After transfection, the protoplasts were incubated for 4.5 hours under light in the absence of ABA (open bars) or in the presence of 5 μM ABA (closed bars). Error bars indicate s.e.m. (n=3). […] ZmUBQ-GUS was used as the internal control. […] Instead, the ABA signaling pathway was reconstituted by co-expression of PYLs, ABI1, SnRK2.6, and ABF2. […] Therefore, the response of other members of the PYL family would not predict the response of PYL13 expression or over-expression in plants.
PYL13 interacts with all clade A PP2Cs tested but binds most strongly to PP2CA. To investigate whether PYL13 inhibits PP2Cs in planta, PYL13 was co-expressed with all clade A PP2Cs in wild-type protoplasts, as shown in FIG. 4. Transfections of all PP2Cs together with SnRK2.6 and ABF2 inhibited RD29B-LUC expression to different degrees, see FIG. 4A, and the degree of inhibition was correlated with the intensity of interaction between PP2Cs and SnRK2.6 (Fujii et al., 2009). […] The ABA signaling pathway was reconstituted by co-expression of PYLs, PP2Cs, SnRK2.6, and ABF2. RD29B-LUC was used as the ABA-responsive reporter. ZmUBQ-GUS was used as the internal control. After transfection, protoplasts were incubated for 4.5 h under light in the absence of ABA (open bars) or in the presence of 5 μM ABA (closed bars). Error bars indicate s.e.m. (n=9).
To investigate the physiological significance of the binding between PYL13 and PYLs in vivo, PYL13 was co-expressed with one of the other PYLs, ABI1, SnRK2.6, and ABF2 in wild-type protoplasts. When the transfected PYL13 plasmid was 2-fold of that of the other PYLs, co-transfections with PYL13 decreased the activity of the ABA-responsive PYLs (FIG. 5E). […] ZmUBQ-GUS was used as the internal control. After transfection, protoplasts were incubated for 4.5 h under light in the absence of ABA (open bars) or in the presence of 5 μM ABA (closed bars). Error bars indicate s.e.m. (n=3).
The ABA signaling pathway was reconstituted by co-expression of PYL13, PYLs, ABI1, SnRK2.6, and ABF2. […] Error bars indicate s.e.m. (n=3). […] Without wishing to be bound by theory, PYL13 inhibition of other PYLs might result from direct interactions between PYL13 and other PYLs or from competition for the binding sites on PP2Cs.
Assays for transient expression in protoplasts were performed as described (Fujii et al., 2009). Leaf strips (0.5 mm) were cut from the middle part of second leaves using a razor blade (VWR SCIENTIFIC) and submerged in 15 mL of enzyme solution containing 20 mM MES, pH 5.7, 1.5% (w/v) cellulase R10 (YAKULT PHARMACEUTICAL INDUSTRY), 0.4% (w/v) macerozyme R10 (YAKULT PHARMACEUTICAL INDUSTRY), 0.4 M mannitol, 20 mM KCl, 10 mM CaCl2, 1 mM 2-mercaptoethanol, and 0.1% BSA. The leaves were vacuum infiltrated for 30 min and then incubated without shaking for 3 h in the dark at room temperature. The enzyme/protoplast solution was diluted with 15 mL of W5 solution (2 mM MES, pH 5.7, 154 mM NaCl, 125 mM CaCl2, and 5 mM KCl) and filtered with a 75-μm nylon mesh. Protoplasts were centrifuged at 100 g for 2 min in a 30-mL round-bottomed tube (SARSTEDT), resuspended in W5 solution, and rested for 30 min at room temperature.
Before transfection, protoplasts were changed into MMg solution (4 mM MES, pH 5.7, 0.4 M mannitol, and 15 mM MgCl2) to a final concentration of 2×10^5 cells per microliter. Protoplasts (100 μl) were gently and thoroughly mixed with the plasmid DNA mixture (less than 10 μl) and 110 μl of PEG solution (40% w/v PEG-4000, 0.2 M mannitol, and 100 mM CaCl2), incubated for 5 min, washed with 440 μl of W5 solution, and resuspended in 50 μl of WI solution (4 mM MES, pH 5.7, 0.5 M mannitol, and 20 mM KCl). After transfection, protoplasts were incubated in WI solution without ABA or with 5 μM ABA under light. […]

[2] = test system: clade A PP2Cs; assay: Yeast two-hybrid assay of PYL13 with clade A PP2Cs; assay type: binding, Arabidopsis; details: ABA-independent
Description: To investigate how PYL13 may function in plants, the interaction between PYL13 and clade A PP2Cs in yeast two-hybrid assays was examined, as shown in FIG. 3. […] PYL13 binds strongly with ABI1, ABI2, PP2CA, and HAI2 but weakly with HAB1 and HAI1 (FIG. 3A). […] PYL13 fused to the GAL4-DNA-binding domain (BD) was used as […], and PP2Cs fused to the GAL4-activating domain (AD) were used as baits. Interaction was determined by growth assay on media lacking His and His/Ade in the presence and absence of ABA. Dilutions (10^−1, 10^−2, and 10^−3) of saturated cultures were spotted onto the plates, which were photographed after 5 days.

## PYL2: Arabidopsis thaliana PYL family ABA receptor protein PYL2, AT2G26040
[1]
  ABA-dependent induction of RD29B-LUC expression: enabled the expression; also recorded: restored RD29B-LUC expression

B1: PYL13: Arabidopsis thaliana PYR/PYL/RCAR family protein PYL13, SEQ ID NO: 1 (protein, listed as Arabidopsis thaliana)
chain: MESSKQKRCRSSVVETIEAPLPLVWSILRSFDKPQAYQRFVKSCTMRSGGGGGKGGEGKGSVRDVTLVSGFPADFSTERLEELDDESHVMVVSIIGGNHRLVNYKSKTKVVASPEDMAKKTVVVESYVVDVPEGTSEEDTIFFVDNIIRYNLTSLAKLTKKMMK
[1]
  ABA-dependent induction of RD29B-LUC expression: did not enable the expression
[1]; co-transfection with ABI1, ABI2, HAB1, HAB2, or AHG1
  RD29B-LUC expression: did not enable RD29B-LUC expression
[1]; co-transfection with PP2CA, HAI2, or HAI3
  RD29B-LUC expression: enabled the ABA-dependent induction
[1]; with PYL1
  level of inhibition by PYL13 of the other PYL's activity: 67%
[1]; with PYL2
  level of inhibition by PYL13 of the other PYL's activity: 27%
[2]; with ABI1, ABI2, PP2CA, and HAI2
  binding in yeast two-hybrid assay: strongly
[2]; with HAB1 and HAI1
  binding in yeast two-hybrid assay: weakly
